Data on five molecules can be found in patent publication US20200040071A1 (HUB BIOTECH, published 2020).

The target in test [1] is T1, endothelial monocyte activating polypeptide II (EMAP II) (UniProt Q12904 147-312, limits assumed).
T1 construct: also called EMAP II antigen; EMAP II protein
T1 sequence (looked up): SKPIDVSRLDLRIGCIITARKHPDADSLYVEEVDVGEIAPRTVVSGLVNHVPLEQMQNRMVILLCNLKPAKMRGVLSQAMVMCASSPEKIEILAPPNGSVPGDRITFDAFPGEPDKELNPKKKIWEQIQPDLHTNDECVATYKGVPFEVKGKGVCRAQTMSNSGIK
The test can be described thus: SPR (Reichert SR7500DC), EMAP II protein fixed to a PEG chip (ligand printed on the sheet as hAIMP1), antibody as analyte at 0-40 nM. As to the method: (§1) A surface plasmon resonance (SPR) method was used to further compare the antigen-binding abilities between BAP015-hum03 and BAP072-EMAP II-1. Reichert SR7500DC system (Reichert Technologies, Depew, N.Y.) was used for SPR, and Scrubber2 software was used for data collection. 2.5 μg of EMAP II protein was fixed to PEG chip (Reichert Technologies), after which BAP015-hum03 and BAP072-EMAP II-1 antibodies were flowed thereinto to compare the binding abilities therebetween.

The target of test [2] is T1, endothelial monocyte activating …. The test can be described thus: SPR, Reichert SR7500DC, EMAP II fixed to PEG chip, antibody flowed. As to the method:
as §1
In general terms: In SPR one partner is held on a chip, and binding of the other changes the refractive index at the surface.

For test [3] the target is unchanged. The test can be described thus: ELISA, EMAP II coated at 1 ug/ml, anti-IgG-HRP detection, absorbance at 450 nm. As to the method: (§2) Each well of a 96-well plate was coated with 100 μl of EMAP II antigens at a concentration of 1 μg/ml, and incubated at 37° C. for 2 hours. The coated antigens were blocked with 5% BSA and washed with washing buffer solution. […] The resulting ones were washed 3 times with washing buffer solution, then treated with anti-IgG-HRP antibodies, and then incubated for 1 hour. Then, the resulting ones were washed 3 times with washing buffer solution, and treated with a substrate for 30 minutes at room temperature. Color development was performed, after which stop solution was inserted thereinto, such that absorbance was measured at a wavelength of 450 nm to test an antigen-binding ability of the antibodies.
On the technique in general: In an ELISA, binding on a coated surface is turned into a signal by an enzyme label.

The target is the same in test [4]. Description: ELISA, plate coated with EMAP II antigen (1 µg/ml), detection with anti-IgG-HRP, OD 450 nm. As for the experimental part:
as §2

Numbering of substitutions follows the chain as printed. Some results are limits rather than exact numbers.

B1: BAP015-hum03 antibody (antibody, V domains shown)
VH: EVQLVQSGAEVKKPGATVKISCKVSGYTFTSYTMHWVRQAPGQGLEWMGYINPSSGFTNYNQKFKDRVTISADKSISTAYLQWSSLKASDTAMYYCASRFAYWGQG
VL: AIQLTQSPSSLSASVGDRVTITCKASQDVSTAVAWYQQKPGKAPKLLIYSASYRYTGVPSRFSGSGSGTDFTFTISRLEPEDFAVYYCQQHYSIPYTFGQG
notes: The printed variable regions end at FGQG (light) and WGQG (heavy), so they seem to stop short of the end of framework 4; also called anti-EMAP II parent antibody; control group
One may read the koff as a measure of how fast the partners let go of each other. The low end stands for slow dissociation, the high end for fast dissociation. As a reminder, the kon is the rate constant with which the complex forms. A high value points to faster complex formation. For orientation: Kd means the concentration at which binding is half-saturated. In test [1], B1 yielded a koff of 5.38e-05 s⁻¹ and a kon of 75900 M⁻¹ s⁻¹. Also, the Kd in test [2] stood at 709 pM.

B2: BAP072-EMAP II-4 antibody (antibody, V domains shown)
VH: B1 VH with I51T, N61T, T69H, M93W
VL: B1 VL with R54G
For B2, in test [3], the “concentration of antibodies to reach O.D 2.5” value (from here on “concentration of antibodies”) was at least 100 ng/mL.

B3: BAP072-EMAP II-3 antibody (antibody, V domains shown)
VH: B1 VH with S54R, N61R, D66H, A97F
VL: B1 VL with R54G
notes: also called BAP072-EMAP 11-3
Turning to B3, the “concentration of antibodies” value in test [3] was at least 100 ng/mL.

B4: BAP072-EMAP II-2 antibody (antibody, V domains shown)
VH: B1 VH with I51T, N61T, T69H, M93W
VL: B1 VL with T56W
notes: also called BAP072-EMAP 11-2
With B4, the “concentration of antibodies” value in test [3] is at least 100 ng/mL.

B5: BAP072-EMAP II-1 antibody (antibody, V domains shown)
VH: B1 VH with S54R, N61R, D66H, A97F
VL: B1 VL with T56W
A word on the EC50 (read off the curve): it is the midpoint of the concentration-response curve. Read a low EC50 (read off the curve) as greater potency. In test [1], B5 yielded a koff of 1.7e-06 s⁻¹ and a kon of 27000 M⁻¹ s⁻¹. Besides, in test [3], the “concentration of antibodies” value is at most 10 ng/mL and the “fold antigen-binding ability against the other antibodies (BAP015-hum03, BAP072-EMAP II-2, II-3, II-4)” value was around 10 fold. Besides, in test [2], the Kd is 63 pM and the “fold antigen-binding ability against BAP015-hum03” value is around 10 fold. The concentration for a half-maximal effect (EC50 (read off the curve)) in test [4] was around 7 ng/mL.
